In this assay the target is T1, CD40L (UniProt P29965 1-261, limits assumed).
T1 construct: whole, on cells; also called cytokine over-expressing Expi293 cells (CD40L)
T1 sequence (looked up): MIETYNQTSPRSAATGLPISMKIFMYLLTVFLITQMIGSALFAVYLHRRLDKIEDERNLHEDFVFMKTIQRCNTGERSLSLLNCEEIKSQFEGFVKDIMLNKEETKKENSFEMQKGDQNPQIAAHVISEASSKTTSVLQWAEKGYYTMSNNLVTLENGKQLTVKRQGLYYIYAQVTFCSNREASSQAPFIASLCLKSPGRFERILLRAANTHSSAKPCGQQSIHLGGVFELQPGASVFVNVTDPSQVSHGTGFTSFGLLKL
As to the kind of experiment: flow cytometry, 100 nM IgG, CD40L over-expressing Expi293 cells over parent Expi293 cells. On the technique in general: Flow cytometry measures light scatter and fluorescence of single cells or particles in a stream.

Description: All incubations and washes were in buffer containing PBS+1% BSA. MFI Ratio is defined by the mean fluorescence intensity (MFI) of the cytokine over-expressing Expi293 cell over the Expi293 parent cell. […] EC50 was calculated in GraphPad Prism.

B1: CD40L-239 (antibody, V domains shown)
VH: EVQLLESGGGLVQPGGSLRLSCAASGFIFQWYDMGWVRQAPGKGLEWVSSINDRGDQTYYADSVKGRFTISRDNSKNTLYLQMNSLRAEDTAVYYCARVAFSGSFDYWGQGTLVTVSS
VL: DIQMTQSPSSLSASVGDRVTITCRASQSILSYLNWYQQKPGKAPKLLIYFTSTLAAGVPSRFSGSGSGTDFTLTISSLQPEDFATYYCQQSYSSAPTFGQGTKVEIK
Take B1: the “100 nM FACS (MFI Ratio)” value came out at 4.2 MFI ratio.

B2: CD40L-342 (antibody, V domains shown)
VH: EVQLLESGGGLVQPGGSLRLSCAASGFTFSKYAMNWVRQAPGKGLEWVSAISGSGESTYYADSVKGRFTISRDNSKNTLYLQMNSLRAEDTAVYYCARAHDYDSMLMDYWGQGTLVTVSS
VL: DIQMTQSPSSLSASVGDRVTITCRASQSISRYLNWYQQKPGKAPKLLIYAESTLQSGVPSRFSGSGSGTDFTLTISSLQPEDFATYYCQQSYTIPLTFGQGTKVEIK
As to B2, the “100 nM FACS (MFI Ratio)” value was 124 MFI ratio.

B3: CD40L-344 (antibody, V domains shown)
VH: EVQLLESGGGLVQPGGSLRLSCAASGFTFSKYAMNWVRQAPGKGLEWVSAISGSGESTYYADSVKGRFTISRDNSKNTLYLQMNSLRAEDTAVYYCARAHDYDSMLMDYWGQGTLVTVSS
VL: DIQMTQSPSSLSASVGDRVTITCRASESITTYLNWYQQKPGKAPKLLIYTASGLQSGVPSRFSGSGSGTDFTLTISSLQPEDFATYYCQQSYTVPITFGQGTKVEIK
For the molecule B3, the “100 nM FACS (MFI Ratio)” value worked out at 4.9 MFI ratio.

B4: CD40L-343 (antibody, V domains shown)
VH: EVQLLESGGGLVQPGGSLRLSCAASGFTFSKYAMNWVRQAPGKGLEWVSAISGSGESTYYADSVKGRFTISRDNSKNTLYLQMNSLRAEDTAVYYCARAHDYDSMLMDYWGQGTLVTVSS
VL: DIQMTQSPSSLSASVGDRVTITCRASQYINNYLNWYQQKPGKAPKLLIYASSTLQRGVPSRFSGSGSGTDFTLTISSLQPEDFATYYCQQSFSTPITFGQGTKVEIK
Take B4: the “100 nM FACS (MFI Ratio)” value came to 35.8 MFI ratio.

B5: CD40L-330 (antibody, V domains shown)
VH: EVQLLESGGGLVQPGGSLRLSCAASGFTFSKYAMNWVRQAPGKGLEWVSAISGSGESTYYADSVKGRFTISRDNSKNTLYLQMNSLRAEDTAVYYCARAHDYDSMLMDYWGQGTLVTVSS
VL: DIQMTQSPSSLSASVGDRVTITCRASQTIGSYLNWYQQKPGKAPKLLIYSASTLQTGVPSRFSGSGSGTDFTLTISSLQPEDFATYYCQQSYSPPLTFGGGTKVEIK
For B5, the “100 nM FACS (MFI Ratio)” value was 27.1 MFI ratio.

B6: CD40L-319 (antibody, V domains shown)
VH: EVQLLESGGGLVQPGGSLRLSCAASGFTFGHYAMGWVRQAPGKGLEWVSAISGSGAGTYYADSVKGRFTISRDNSKNTLYLQMNSLRAEDTAVYYCATHDSPYYYIDVWGQGTLVTVSS
VL: DIQMTQSPSSLSASVGDRVTITCRASQSIYTYLNWYQQKPGKAPKLLIYTASALQTGVPSRFSGSGSGTDFTLTISSLQPEDFATYYCQQSYRIPLTFGGGTKVEIK
With B6, the “100 nM FACS (MFI Ratio)” value amounted to 4.2 MFI ratio.

B7: CD40L-321 (antibody, V domains shown)
VH: EVQLLESGGGLVQPGGSLRLSCAASGFSFRSYAMSWVRQAPGKGLEWVSIISGSGGSTSYADSVKGRFTISRDNSKNTLYLQMNSLRAEDTAVYYCARYYFGLSSNWFNPWGQGTLVTVSS
VL: DIQMTQSPSSLSAYVGDRVTITCRASQSIGIHLNWYQQKPGKAPKLLIYGASRLQTGVPSRFSGSGSGTDFTLTISSLQPEDFATYYCQQSYSAPLTFGGGTKVEIK
Turning to B7, the “100 nM FACS (MFI Ratio)” value was found to be 1.7 MFI ratio.

B8: CD40L-340 (antibody, V domains shown)
VH: EVQLLESGGGLVQPGGSLRLSCAASGFGFSSYAMSWVRQAPGKGLEWVSAISGGGGSIYYADSVKGRFTISRDNSKNTLYLQMNSLRAEDTAVYYCATDYGDYDRLNFDLWGQGTLVTVSS
VL: DIQMTQSPSSLSASVGDRVTITCRASQSVSRFLNWYQQKPGKAPKLLIYAASTLQPGVPSRFSGSGSGTDFTLTISSLQPEDFATYYCQQSYETPLTFGQGTKVEIK
For B8, the “100 nM FACS (MFI Ratio)” value came out at 61.5 MFI ratio.

B9: CD40L-339 (antibody, V domains shown)
VH: EVQLLESGGGLVQPGGSLRLSCAASGFTFSNYAMSWVRQAPGKGLEWVSAITGSGSTTYYADSVKGRFTISRDNSKNTLYLQMNSLRAEDTAVYYCARAHDYDSMLMDYWGQGTLVTVSS
VL: DIQMTQSPSSLSASVGDRVTITCRASQSIGTFLNWYQQKPGKAPKLLIYGTSNLQSGVPSRFSGSGSGTDFTLTISSLQPEDFATYYCQQGYRTPLTFGQGTKVEIK
Consider B9, for which the “100 nM FACS (MFI Ratio)” value was determined as 56.6 MFI ratio.

B10: CD40L-220 (antibody, V domains shown)
VH: EVQLLESGGGLVQPGGSLRLSCAASGGYNFRDYMHWVRQAPGKGLEWVSSITSEGGSTYYADSVKGRFTISRDNSKNTLYLQMNSLRAEDTAVYYCAKDLGQGFDYWGQGTLVTVSS
VL: DIQMTQSPSSLSASVGDRVTITCRTSQDIGNYLNWYQQKPGKAPKLLIYGTSYRYSGVPSRFSGSGSGTDFTLTISSLQPEDFATYYCQPSFVFPYTFGQGTKVEIK
As to B10, the “100 nM FACS (MFI Ratio)” value stood at 4.3 MFI ratio.

B11: CD40L-241 (antibody, V domains shown)
VH: EVQLLESGGGLVQPGGSLRLSCAASGGYNFRDYMHWVRQAPGKGLEWVSSISDHGFNTYYADSVKGRFTISRDNSKNTLYLQMNSLRAEDTAVYYCAKNLGQGFDYWGQGTLVTVSS
VL: DIQMTQSPSSLSASVGDRVTITCRTSQDISNYLNWYQQKPGKAPKLLIYAASNVESGVPSRFSGSGSGTDFTLTISSLQPEDFATYYCASRNGWNHVVFGQGTKVEIK
B11: the “100 nM FACS (MFI Ratio)” value is 1.7 MFI ratio.

B12: CD40L-214 (antibody, V domains shown)
VH: EVQLLESGGGLVQPGGSLRLSCAASGFTFEDTEMDWVRQAPGKGLEWVSSITSEGGSTYYADSVKGRFTISRDNSKNTLYLQMNSLRAEDTAVYYCAKPDVLFDYWGQGTLVTVSS
VL: DIQMTQSPSSLSASVGDRVTITCSGDNLRGYYASWYQQKPGKAPKLLIYGENSRPSGVPSRFSGSGSGTDFTLTISSLQPEDFATYYCQQSYENPLTFGQGTKVEIK
For B12, the “100 nM FACS (MFI Ratio)” value turned out to be 7.3 MFI ratio.

B13: CD40L-217 (antibody, V domains shown)
VH: EVQLLESGGGLVQPGGSLRLSCAASGFTFASYEMTWVRQAPGKGLEWVSSITSEGGSTYYADSVKGRFTISRDNSKNTLYLQMNSLRAEDTAVYYCAKPDKIFDYWGQGTLVTVSS
VL: DIQMTQSPSSLSASVGDRVTITCKASENVDTYVSWYQQKPGKAPKLLIYDDIDRPSGVPSRFSGSGSGTDFTLTISSLQPEDFATYYCQQSYSSPRTFGQGTKVEIK
As for B13, the “100 nM FACS (MFI Ratio)” value came out at 7.7 MFI ratio.

B14: CD40L-216 (antibody, V domains shown)
VH: EVQLLESGGGLVQPGGSLRLSCAASGFDFSDYEMSWVRQAPGKGLEWVSSITSEGGSTYYADSVKGRFTISRDNSKNTLYLQMNSLRAEDTAVYYCAKPDQFFDYWGQGTLVTVSS
VL: DIQMTQSPSSLSASVGDRVTITCRASQPIAYFLSWYQQKPGKAPKLLIYENNNRPSGVPSRFSGSGSGTDFTLTISSLQPEDFATYYCQPSFLYPYTFGQGTKVEIK
As for B14, the “100 nM FACS (MFI Ratio)” value turned out to be 22.4 MFI ratio.

B15: CD40L-219 (antibody, V domains shown)
VH: EVQLLESGGGLVQPGGSLRLSCAASGFDFSDYEMSWVRQAPGKGLEWVSSITSEGGSTYYADSVKGRFTISRDNSKNTLYLQMNSLRAEDTAVYYCAKPDQFFDYWGQGTLVTVSS
VL: DIQMTQSPSSLSASVGDRVTITCRASQSISNNLNWYQQKPGKAPKLLIYGTSYRYSGVPSRFSGSGSGTDFTLTISSLQPEDFATYYCQQTYDTPLTFGQGTKVEIK
As for B15, the “100 nM FACS (MFI Ratio)” value is 2.1 MFI ratio.

B16: CD40L-218 (antibody, V domains shown)
VH: EVQLLESGGGLVQPGGSLRLSCAASGFDFSDYEMSWVRQAPGKGLEWVSSITSEGGSTYYADSVKGRFTISRDNSKNTLYLQMNSLRAEDTAVYYCAKPDVLFDYWGQGTLVTVSS
VL: DIQMTQSPSSLSASVGDRVTITCRTSQSLSSYLHWYQQKPGKAPKLLIYQNDKRPSGVPSRFSGSGSGTDFTLTISSLQPEDFATYYCKQSYDLFTFGQGTKVEIK
With B16, the “100 nM FACS (MFI Ratio)” value came out at 5.1 MFI ratio.

B17: CD40L-233 (antibody, V domains shown)
VH: EVQLLESGGGLVQPGGSLRLSCAASGFTFEDYQMGWVRQAPGKGLEWVSSITSEGGSTYYADSVKGRFTISRDNSKNTLYLQMNSLRAEDTAVYYCAKPDKDFDYWGQGTLVTVSS
VL: DIQMTQSPSSLSASVGDRVTITCRASQFIGRYFNWYQQKPGKAPKLLIYGATILADGVPSRFSGSGSGTDFTLTISSLQPEDFATYYCQQNNNWPTTFGQGTKVEIK
With B17, the “100 nM FACS (MFI Ratio)” value is 1.8 MFI ratio.

B18: CD40L-338 (antibody, V domains shown)
VH: EVQLLESGGGLVQPGGSLRLSCAASGFTFGSFAMNWVRQAPGKGLEWVSAITGGGGSTYYADSVKGRFTISRDNSKNTLYLQMNSLRAEDTAVYYCAHGLAWRWGFDYWGQGTLVTVSS
VL: DIQMTQSPSSLSASVGDRVTITCRASQNIDRYLNWYQQKPGKAPKLLIYAASALQSGVPSRFSGSGSGTDFTLTISSLQPEDFATYYCQQSYSILPVTFGQGTKVEIK
Regarding B18, the “100 nM FACS (MFI Ratio)” value stood at 34.3 MFI ratio.

B19: CD40L-379 (antibody, V domains shown)
VH: EVQLLESGGGLVQPGGSLRLSCAASGFTFGSFAMNWVRQAPGKGLEWVSAITGGGGSTYYADSVKGRFTISRDNSKNTLYLQMNSLRAEDTAVYYCAHGLAWRWGFDYWGQGTLVTVSS
VL: DIQMTQSPSSLSASVGDRVTITCRASQNIDRYLNWYQQKPGKAPKLLIYAASALQSGVPSRFSGSGSGTDFTLTISSLQPEDFATYYCQQSYSILPVTFGGGTKVEIK
In the case of B19, the “100 nM FACS (MFI Ratio)” value was 71.2 MFI ratio.

B20: CD40L-266 (antibody, V domains shown)
VH: EVQLLESGGGLVQPGGSLRLSCAASGGYNFRDYMHWVRQAPGKGLEWVGKINYAGNTDYNDSVKGRFTISRDNSKNTLYLQMNSLRAEDTAVYYCAKNLGQGFDYWGQGTLVTVSS
VL: DIQMTQSPSSLSASVGDRVTITCRASQNIRSYLNWYQQKPGKAPKLLIYSASVLQSGVPSRFSGSGSGTDFTLTISSLQPEDFATYYCKSRAYSGNLVEFGQGTKVEIK
Consider B20, for which the “100 nM FACS (MFI Ratio)” value came out at 1.7 MFI ratio.

B21: CD40L-250 (antibody, V domains shown)
VH: EVQLLESGGGLVQPGGSLRLSCAASGFIFQWYDMGWVRQAPGKGLEWVSSIDWRGLLTYYADSVKGRFTISRDNSKNTLYLQMNSLRAEDTAVYYCAKAYYGGFDYWGQGTLVTVSS
VL: not shown
Regarding B21, the “100 nM FACS (MFI Ratio)” value was determined as 27.1 MFI ratio.

The values are drawn from patent US20230265179A1 (TWIST BIOSCIENCE, published 2023).
